Values of other authors as cited in patent publication US20220273793A1, “HORSE IL-31 INDUCED PRURITUS MODEL” (priority 2021, published 2022).

B1: recombinant canine IL-31: recombinant canine IL-31 used as intravenous challenge in beagle dogs (protein)
chain: SHMAPTHQLPPSDVRKIILELQPLSRGLLEDYQKKETGVPESNRTLLLCLTSDSQPPRLNSSAILPYFRAIRPLSDKNIIDKIIEQLDKLKFQHEPETEISVPADTFECKSFILTILQQFSACLESVFKSLNSGPQ
B2: Cytopoint: canine anti-IL-31 monoclonal antibody (mAb) produced by Zoetis Inc. (antibody, chains of the INN, looked up, V domains shown)
VH: EVQLVESGGDLVKPGGSLRLSCVASGFTFSNYGMSWVRQAPGKGLQWVATISYGGSYTYYPDNIKGRFTISRDNAKNTLYLQMNSLRAEDTAMYYCVRGYGYDTMDYWGQGTLVTVSS
VL: EIVMTQSPASLSLSQEEKVTITCKASQSVSFAGTGLMHWYQQKPGQAPKLLIYRASNLEAGVPSRFSGSGSGTDFSFTISSLEPEDVAVYYCQQSREYPWTFGQGTKLEIK

Key:
[1] = system: beagle dogs; conditions: 1.5 μg/kg intravenous challenge dose; cited from earlier work
[2] = biological target: T1, IL-31 (Canis lupus familiaris, UniProt A0A8I3S3D1); conditions: dogs with atopic dermatitis; cited from earlier work
T1 construct: host or cells: endogenous IL-31 of client dogs with atopic dermatitis
T1 sequence (A0A8I3S3D1 24-159): B1 chain

Row | Molecule | pruritus duration [1] | effect on pruritus and skin lesions [2]
1 | B1 | < 24 h | 
2 | B2 |  | reduce pruritus and skin lesions
